Data reported in the supplement of paper PMC9112550, “Optimization of the antimicrobial peptide Bac7 by deep mutational scanning” (BMC Biology, 2022).

System: Escherichia coli TOP10
Test: shrunken log2 fold change of peptide-encoding DNA abundance (4.5 h post-induction vs induction); higher = less antimicrobial activity (less host growth inhibition)
Conditions: time post-induction: 4.5 h; library: site-saturation at positions 5, 18, 19, 20
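Note: peptides expressed intracellularly from a pBAD plasmid library in pooled LB shake-flask culture, induced with 0.3% L-arabinose, DNA abundance read by NGS, three biological replicates, DESeq2 with apeglm shrinkage.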

Row | Sequence | shrunken log2 fold change
1 | RRIRFRPPRLPRPRPRPFYKPRP | -0.311
2 | RRIRSRPPRLPRPRPRPNWKPRP | 0.00354
3 | RRIRGRPPRLPRPRPRPMYVPRP | -0.0802
4 | RRIRVRPPRLPRPRPRPNFLPRP | -0.0134
5 | RRIRERPPRLPRPRPRPWGFPRP | 0.0221
6 | RRIRERPPRLPRPRPRPGQGPRP | -0.132
7 | RRIRARPPRLPRPRPRPYGHPRP | -0.095
8 | RRIRLRPPRLPRPRPRPYKNPRP | -0.631
9 | RRIRLRPPRLPRPRPRPFVCPRP | -0.0489
10 | RRIRTRPPRLPRPRPRPWHGPRP | -0.111
11 | RRIRFRPPRLPRPRPRPNPAPRP | 0.0261
12 | RRIRTRPPRLPRPRPRPNICPRP | 0.00449
13 | RRIRFRPPRLPRPRPRPEMMPRP | 0.00382
14 | RRIRHRPPRLPRPRPRPNRAPRP | -0.0865
15 | RRIRCRPPRLPRPRPRPYTLPRP | -1.07
16 | RRIRERPPRLPRPRPRPPCRPRP | -0.0117
17 | RRIRQRPPRLPRPRPRPRIPPRP | 0.206
18 | RRIRCRPPRLPRPRPRPRWLPRP | 0.313
19 | RRIRDRPPRLPRPRPRPWADPRP | -0.00486
20 | RRIRERPPRLPRPRPRPRHTPRP | -0.187
21 | RRIRYRPPRLPRPRPRPYPCPRP | -0.268

Row | Sequence | shrunken log2 fold change
22 | RRIRMRPPRLPRPRPRPIRSPRP | -0.0819
23 | RRIRERPPRLPRPRPRPVWFPRP | -0.0467
24 | RRIRNRPPRLPRPRPRPVDGPRP | -0.175
25 | RRIRFRPPRLPRPRPRPWAVPRP | -0.0667
26 | RRIRKRPPRLPRPRPRPKYGPRP | -0.206
27 | RRIRQRPPRLPRPRPRPSKSPRP | -0.332
28 | RRIRIRPPRLPRPRPRPSIMPRP | -0.469
29 | RRIRQRPPRLPRPRPRPCMHPRP | -0.0431
30 | RRIRKRPPRLPRPRPRPEGMPRP | 0.194
31 | RRIRDRPPRLPRPRPRPFAKPRP | -0.0729
32 | RRIRFRPPRLPRPRPRPPIIPRP | 0.92
33 | RRIRTRPPRLPRPRPRPNSWPRP | -0.413
34 | RRIRYRPPRLPRPRPRPSYQPRP | -1.27
35 | RRIRTRPPRLPRPRPRPQWVPRP | 0.143
36 | RRIRARPPRLPRPRPRPCEGPRP | 0.0679
37 | RRIRVRPPRLPRPRPRPAWIPRP | 0.0483
38 | RRIRQRPPRLPRPRPRPVMWPRP | 0.448
39 | RRIRQRPPRLPRPRPRPWHAPRP | -0.106
40 | RRIRYRPPRLPRPRPRPVVQPRP | 0.0013
41 | RRIRDRPPRLPRPRPRPRLDPRP | 0.173
42 | RRIRRRPPRLPRPRPRPSQEPRP | -0.225

Row | Sequence | shrunken log2 fold change
43 | RRIRKRPPRLPRPRPRPLQPPRP | 0.349
44 | RRIRKRPPRLPRPRPRPGRQPRP | 0.143
45 | RRIRFRPPRLPRPRPRPWCPPRP | -0.155
46 | RRIRKRPPRLPRPRPRPMCMPRP | -0.169
47 | RRIRQRPPRLPRPRPRPINEPRP | 0.0162
48 | RRIRMRPPRLPRPRPRPNTIPRP | -0.3
49 | RRIRNRPPRLPRPRPRPLQKPRP | -0.0108
50 | RRIRNRPPRLPRPRPRPFWRPRP | -0.0018
51 | RRIRERPPRLPRPRPRPGEAPRP | 0.139
52 | RRIRGRPPRLPRPRPRPEQVPRP | 0.995
53 | RRIRKRPPRLPRPRPRPRWIPRP | 0.112
54 | RRIRMRPPRLPRPRPRPPWVPRP | 0.241
55 | RRIRIRPPRLPRPRPRPKYCPRP | 0.00104
56 | RRIRWRPPRLPRPRPRPEYVPRP | 0.214
57 | RRIRVRPPRLPRPRPRPSDKPRP | -0.153
58 | RRIRDRPPRLPRPRPRPNPRPRP | 0.0975
59 | RRIRGRPPRLPRPRPRPEDLPRP | 0.582
60 | RRIRARPPRLPRPRPRPIKWPRP | 0.235
61 | RRIRPRPPRLPRPRPRPTVHPRP | -0.0233
62 | RRIRFRPPRLPRPRPRPIRRPRP | 0.0321
63 | RRIRIRPPRLPRPRPRPVDWPRP | -0.0226
